For assay [1], the target named is T1, RAGE (cognate target of the anti-RAGE antibodies; species not stated at the place) (Homo sapiens (Human), UniProt Q15109 23-342).
T1 construct: not shown: Carrier or tag of the soluble construct
The assay can be described thus: Biacore SPR. The protocol:
ABS leads in human IgG1 format were analyzed for specificity and stability.
(§1) Biacore analysis was performed using the T-200 biosensor, series S CM5 chips, an amine-coupling kit, 10 mM sodium acetate immobilization buffer at pH 5.0, 10×HBS-P running buffer and NaOH for regeneration (GE Healthcare). Kinetic assay conditions were established to minimize the influence of mass transfer, avidity and rebinding events. A predefined ligand immobilization program was set up to immobilize approximately 100 Response Units (RU) of IgG on the chip. Purified target proteins were diluted in HBS-P running buffer to a range of final concentrations and injected at 50 μl/min for 3 mins. Dissociation was allowed to proceed for 10 min followed by a 5 sec pulse of 20 mM NaOH for regeneration of the chip surface. All sensorgrams were analyzed using the Biacore T-200 evaluation software.

Assay [2] addresses T1, RAGE (cognate target of the anti-RAGE …). The assay can be described thus: Biacore T-200 SPR, IgG immobilised (~100 RU), purified target protein injected. The protocol: as §1
(In general: SPR reads the build-up and loss of mass on a sensor chip optically.)

Another assay deals with T2, hCXCL13 (human, UniProt O43927 23-109).
T2 construct: Non-target panel protein
T2 sequence (looked up): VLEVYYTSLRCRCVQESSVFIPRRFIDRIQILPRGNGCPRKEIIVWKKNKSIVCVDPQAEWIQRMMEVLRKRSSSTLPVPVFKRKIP
The assay can be described thus: Biacore specificity assay: IgG immobilised (about 300 RU), antigen injected at 500 nM. As to the method: (§2) Biacore specificity analyses were performed using the T-200 biosensor, series S CM5 chips, an amine-coupling kit, 10 mM sodium acetate immobilization buffer at pH 5.0, 10× HBS-P running buffer and NaOH for regeneration (GE Healthcare). A predefined ligand (IgG) immobilization program was set up to immobilize approximately 300 Response Units (RU) on the flow cell for each IgG to be tested. For Anti-RAGE and anti-A33, a panel of fully-purified recombinant target and non-target antigens were diluted in HBS-P running buffer to a final concentration of 500 nM. Four groups of antigens were examined, including: cell membrane proteins (mTRKB, hTRKB, mEGFR, hEGFR, hFceR1, hIL-21R, mICAM1, mICAM2, hICAM1, hCD33, hLAMP-1, hLOX-1, and), soluble signaling molecules (mTNFa, hVEGF, hCXCL13) and albumins (BSA, HSA and MSA). These proteins were injected at 50 μl/min for 3 min, followed by a 5 sec pulse of 20 mM NaOH for regeneration of the chip surface. For pTau, a series of pTau-derived phosphorylated and non-phosphorylated peptides were flowed, as in Shih et al.³. All sensorgrams were analyzed using the Biacore T-200 evaluation software.

For a further assay, the target named is T3, hTRKB (human, UniProt Q16620 32-430, limits assumed).
T3 construct: Non-target panel protein
The assay is described as above. The protocol: as §2

Another assay has as its target T4, HSA (UniProt P02768 25-609).
T4 construct: Non-target panel protein (albumins)
The assay is described as above. As to the method: as §2

A further assay addresses T5, MSA (UniProt P07724 25-608).
T5 construct: Non-target panel protein (albumins)
The description is as above. The protocol: as §2

Another assay deals with T6, mTRKB (mouse, UniProt P15209 32-429, limits assumed).
T6 construct: Non-target panel protein
Described as above. As to the method: as §2

A further assay concerns the target T7, hIL-21R (human, UniProt Q9HBE5 20-232, limits assumed).
T7 construct: Non-target panel protein
Described as above. As to the method: as §2

The target of a further assay is T8, mTNFa (mouse, UniProt P06804 80-235).
T8 construct: Non-target panel protein
T8 sequence (looked up): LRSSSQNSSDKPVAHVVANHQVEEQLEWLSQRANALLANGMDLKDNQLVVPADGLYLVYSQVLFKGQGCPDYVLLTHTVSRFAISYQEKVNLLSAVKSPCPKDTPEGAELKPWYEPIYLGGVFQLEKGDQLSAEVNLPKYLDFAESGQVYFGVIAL
Described as above. As to the method: as §2

For a further assay, the target named is T9, mICAM1 (mouse, UniProt P13597 28-485, limits assumed).
T9 construct: Non-target panel protein
The assay is described as above. As to the method:
as §2

The next assay deals with T10, mICAM2 (mouse, UniProt P35330 23-222, limits assumed).
T10 construct: Non-target panel protein
T10 sequence (looked up): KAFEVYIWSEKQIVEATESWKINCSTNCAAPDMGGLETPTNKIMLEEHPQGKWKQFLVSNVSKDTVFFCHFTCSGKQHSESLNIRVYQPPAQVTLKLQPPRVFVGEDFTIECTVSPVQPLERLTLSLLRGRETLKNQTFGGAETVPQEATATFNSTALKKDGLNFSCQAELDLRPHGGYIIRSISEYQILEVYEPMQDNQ
The description is as above. As to the method: as §2

The target of the next assay is hLOX-1 (human, UniProt P78380 61-273). The description is as above. The protocol:
as §2

Another assay has as its target T11, hFceR1 (human, UniProt P12319 26-205).
T11 construct: Non-target panel protein
T11 sequence (alpha): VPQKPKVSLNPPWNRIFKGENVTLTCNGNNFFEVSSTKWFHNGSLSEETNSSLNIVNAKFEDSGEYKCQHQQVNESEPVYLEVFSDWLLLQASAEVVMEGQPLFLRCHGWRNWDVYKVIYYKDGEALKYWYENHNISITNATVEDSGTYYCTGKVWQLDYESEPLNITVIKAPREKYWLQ
The assay is described as above. As to the method:
as §2

A further assay has as its target T12, BSA (UniProt P02769 25-607).
T12 construct: Non-target panel protein (albumins)
The assay is described as above. As to the method:
as §2

A further assay has as its target T13, hICAM1 (human, UniProt P05362 28-480, limits assumed).
T13 construct: Non-target panel protein
The description is as above. The protocol: as §2

Results on 1 molecule are retold here after patent US20170073395A1 (Pfizer, published 2017).

T1 sequence (Q15109 23-342 limits assumed): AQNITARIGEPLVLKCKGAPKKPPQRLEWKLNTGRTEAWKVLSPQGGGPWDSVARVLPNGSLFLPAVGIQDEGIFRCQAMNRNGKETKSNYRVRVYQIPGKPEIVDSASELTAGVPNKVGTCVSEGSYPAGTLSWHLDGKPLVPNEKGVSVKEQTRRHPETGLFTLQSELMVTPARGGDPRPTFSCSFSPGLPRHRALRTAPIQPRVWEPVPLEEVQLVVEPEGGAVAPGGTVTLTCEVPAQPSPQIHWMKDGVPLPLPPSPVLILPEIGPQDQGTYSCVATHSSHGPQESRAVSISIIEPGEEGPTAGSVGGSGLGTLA
T4 sequence (P02768 25-609): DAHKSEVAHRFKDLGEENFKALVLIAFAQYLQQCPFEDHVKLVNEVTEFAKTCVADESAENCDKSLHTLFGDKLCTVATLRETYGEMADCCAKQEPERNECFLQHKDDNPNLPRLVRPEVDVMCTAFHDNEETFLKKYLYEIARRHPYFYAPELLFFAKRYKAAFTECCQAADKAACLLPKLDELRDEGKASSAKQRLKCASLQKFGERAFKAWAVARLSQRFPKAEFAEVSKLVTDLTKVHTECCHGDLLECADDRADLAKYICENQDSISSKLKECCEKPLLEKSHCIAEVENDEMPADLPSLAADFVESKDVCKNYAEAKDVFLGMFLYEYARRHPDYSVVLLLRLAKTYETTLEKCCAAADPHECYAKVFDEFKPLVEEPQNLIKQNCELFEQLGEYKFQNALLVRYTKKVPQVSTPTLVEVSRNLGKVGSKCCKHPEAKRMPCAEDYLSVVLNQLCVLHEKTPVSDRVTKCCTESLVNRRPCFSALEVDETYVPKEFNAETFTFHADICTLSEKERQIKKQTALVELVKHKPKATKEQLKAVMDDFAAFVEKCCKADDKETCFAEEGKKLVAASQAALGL
T9 sequence (P13597 28-485 limits assumed): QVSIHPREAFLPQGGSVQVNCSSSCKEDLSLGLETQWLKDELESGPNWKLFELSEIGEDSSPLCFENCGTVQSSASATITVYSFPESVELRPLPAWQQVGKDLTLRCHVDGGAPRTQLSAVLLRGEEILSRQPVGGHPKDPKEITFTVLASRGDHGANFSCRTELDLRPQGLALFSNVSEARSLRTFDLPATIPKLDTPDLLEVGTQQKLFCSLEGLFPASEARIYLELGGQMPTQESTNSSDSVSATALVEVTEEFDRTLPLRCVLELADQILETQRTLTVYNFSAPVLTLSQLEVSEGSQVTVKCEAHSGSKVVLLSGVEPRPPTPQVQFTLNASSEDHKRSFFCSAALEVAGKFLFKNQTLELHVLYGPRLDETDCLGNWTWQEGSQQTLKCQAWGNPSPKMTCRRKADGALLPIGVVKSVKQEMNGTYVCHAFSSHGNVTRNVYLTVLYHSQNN
T3 sequence (Q16620 32-430 limits assumed): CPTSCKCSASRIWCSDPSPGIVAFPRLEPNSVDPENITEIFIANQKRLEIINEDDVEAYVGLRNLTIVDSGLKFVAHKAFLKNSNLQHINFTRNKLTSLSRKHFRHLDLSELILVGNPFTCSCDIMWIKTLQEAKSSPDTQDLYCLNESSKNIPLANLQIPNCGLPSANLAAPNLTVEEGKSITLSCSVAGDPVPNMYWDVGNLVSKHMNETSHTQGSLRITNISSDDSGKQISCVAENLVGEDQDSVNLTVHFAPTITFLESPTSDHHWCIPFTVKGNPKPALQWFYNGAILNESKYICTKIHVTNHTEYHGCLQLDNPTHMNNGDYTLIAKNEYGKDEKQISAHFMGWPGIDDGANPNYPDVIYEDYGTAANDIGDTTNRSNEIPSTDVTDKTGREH
T6 sequence (P15209 32-429 limits assumed): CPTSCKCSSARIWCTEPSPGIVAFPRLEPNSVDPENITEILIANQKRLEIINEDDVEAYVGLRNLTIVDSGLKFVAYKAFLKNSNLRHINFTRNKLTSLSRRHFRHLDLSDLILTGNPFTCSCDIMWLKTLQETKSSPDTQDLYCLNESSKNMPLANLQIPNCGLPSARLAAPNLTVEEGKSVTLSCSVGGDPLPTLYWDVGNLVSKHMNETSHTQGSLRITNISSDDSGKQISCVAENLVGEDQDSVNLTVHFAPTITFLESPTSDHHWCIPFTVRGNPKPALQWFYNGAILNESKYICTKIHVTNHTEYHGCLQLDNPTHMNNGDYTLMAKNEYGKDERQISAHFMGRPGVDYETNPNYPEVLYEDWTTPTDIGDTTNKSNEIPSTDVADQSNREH
T12 sequence (P02769 25-607 limits assumed): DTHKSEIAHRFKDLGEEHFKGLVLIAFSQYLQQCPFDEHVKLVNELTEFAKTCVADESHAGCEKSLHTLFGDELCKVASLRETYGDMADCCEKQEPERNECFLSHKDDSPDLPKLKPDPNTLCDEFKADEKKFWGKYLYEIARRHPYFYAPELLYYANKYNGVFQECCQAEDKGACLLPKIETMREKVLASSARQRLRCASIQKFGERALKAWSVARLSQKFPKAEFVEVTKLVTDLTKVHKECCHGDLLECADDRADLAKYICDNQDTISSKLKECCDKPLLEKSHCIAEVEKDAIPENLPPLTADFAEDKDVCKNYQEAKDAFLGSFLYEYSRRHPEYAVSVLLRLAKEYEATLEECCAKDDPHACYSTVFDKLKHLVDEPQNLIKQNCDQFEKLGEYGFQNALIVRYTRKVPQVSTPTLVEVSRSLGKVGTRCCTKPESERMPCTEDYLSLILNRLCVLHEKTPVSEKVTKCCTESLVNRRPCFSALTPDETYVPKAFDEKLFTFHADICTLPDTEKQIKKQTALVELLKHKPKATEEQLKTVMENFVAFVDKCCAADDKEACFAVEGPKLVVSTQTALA
T7 sequence (Q9HBE5 20-232 limits assumed): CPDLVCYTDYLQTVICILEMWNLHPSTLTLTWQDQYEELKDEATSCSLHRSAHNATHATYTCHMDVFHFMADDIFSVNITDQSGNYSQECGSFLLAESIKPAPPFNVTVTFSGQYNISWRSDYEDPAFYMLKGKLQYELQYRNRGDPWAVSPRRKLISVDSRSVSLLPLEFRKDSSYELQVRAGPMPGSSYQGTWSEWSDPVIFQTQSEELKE
T13 sequence (P05362 28-480 limits assumed): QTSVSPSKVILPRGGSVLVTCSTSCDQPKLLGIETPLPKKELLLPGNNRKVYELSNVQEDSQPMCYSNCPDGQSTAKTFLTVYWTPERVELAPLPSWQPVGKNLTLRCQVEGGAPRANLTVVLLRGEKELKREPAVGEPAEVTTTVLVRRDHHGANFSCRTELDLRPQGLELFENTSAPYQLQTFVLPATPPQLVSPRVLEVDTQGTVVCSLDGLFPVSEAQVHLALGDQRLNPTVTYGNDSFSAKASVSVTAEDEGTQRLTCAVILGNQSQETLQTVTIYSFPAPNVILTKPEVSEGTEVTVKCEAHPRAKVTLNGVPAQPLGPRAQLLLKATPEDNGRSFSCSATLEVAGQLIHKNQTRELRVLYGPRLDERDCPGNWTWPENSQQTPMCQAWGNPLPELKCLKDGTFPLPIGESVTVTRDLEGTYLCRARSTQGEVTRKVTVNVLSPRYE

B1: C7-ABS-RAGE IgG (human IgG1) (antibody, V domains shown)
VH: EVQLVESGGGLVQPGGSLRLSCAASGFTFSSYWMSWVRQAPGKGLEWVASIDQDGSNKYYPDSVKGRFTISRDNAKNSLYLQMNSLRAEDTAVYYCARGGDITTGLDYWGQGTLVTVSS
VL: DIQMTQSPSSLSASVGDRVTITCRASQSIGSYLNWYQQKPGKAPKLLIYRASSLASGVPSRFSGSGSGTDFTLTISSLQPEDFATYYCLEFDEHPLTFGGGTKVEIK
notes: Human IgG1 format
The term Kd denotes the free concentration of one partner at which half of the binding sites on the other are occupied at equilibrium, for simple one-to-one binding. A lower Kd goes with a tighter complex. For B1, in assay [1], the “fold affinity improvement over Par-RAGE” value is about 2 fold. Besides, in assay [2], the affinity, expressed as Kd, was 17 nM. The binding result with hCXCL13, with hTRKB, with HSA, with MSA, with mTRKB and in the assay with hIL-21R was “no binding (tested: 500 nM)” in each case. Besides, the binding result with mTNFa, in the assay with mICAM1, with mICAM2, with hLOX-1, with hFceR1 and with BSA was “no binding (tested: 500 nM)” each time. In addition, in the assay with hICAM1, the binding result is recorded as “no binding (tested: 500 nM)”.
